Laboratory results taken from the supplement of paper PMC9170038.

The sequences below were run on K4 kissing-loop RNA reporter (assay: apparent KD of K4 kissing-loop reporter; higher = weaker reporter binding). Conditions: Eterna round: R107; input ligand: theophylline 20 uM.
Description: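 RNA-MaP round R107: designed RNA switches with theophylline, tryptophan, arginine or FMN aptamers are transcribed on-chip within common flanks. They are titrated with a labelled K4 kissing-loop RNA reporter in RNA-MaP buffer (100 mM Tris pH 7.5, 80 mM KCl, 4 mM MgCl2), without ligand or with the indicated ligand. Median apparent KD per design.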
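Also: bound reporter read as fluorescence of individual clusters on recovered sequencing chips by microscopy, with normalized cluster intensities fitted with a binding model.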

Sequence | apparent KD of K4 kissing-loop reporter [nM]
UAUUAAUUGUCAGGAUAUCGAAAUCGAGUGAUGUUCGUAAAUUAAUUAUUAUUAAUAAUAUUUAAACGAGAAGGGACAUUAUUUA [JR_SSFMNB_Sub001] | 647
UAACUCUUGCAGUGAUGUUGCAAGUAAGCUCAGGAUAUCAGGAAACUGAGAAGGGAGCAUCCUGAGCAACUGCAAGAGCUCAGAA [[K1]-[K2]-[F1]-[F2]-[F]'-[K]'-[F]''_Design1] | 160
GGCACGGUAACGCAACCGCCGUGCGCUUGGGAGGAUAUGUUUCGUGACAGAAGGCCCAGUGAUGUUGGGUCUGUUCAAAAGGACU [Ceenerus] | 122
UGAUAGGACAGAAGGAGCGGGAGUGAUGUUCCCAAAAGGGUAAGGUGUCAAAAGACACCCUUCCAGGUAGGUCGCUGUCCUAUCU | 102
GCCGUAGAUUGAAGGAGCGGUAUGGGCGUUGGCUGAGUGAUGUUCAGGGAAAGUGGCUUCUACCAGGUAGGUCGCAAUCUACGGC | 170
UGUAUGUGAUUUGAUACCAGACCAGCUGGUGGUUCACGAGUGAUGUUCGUGUUGGUUUGGGUCCCUUGGCAGCAAAUCGCAUACU [KL-SSTheoB12] | 128
ACGUGCACCAGUGAUGUUGGAAAAUAUGAAGGAGCGGGUGAAAGCCCAGGUAGGUCGCAUAAUAGCACGAGCCACGAAAGUGGCA | 154
CGCAGUGAUGUUGUGAUUAACUACAGGGAAGGAGCGUGCUAGAGCACAGGUAGGUCGCCCAGUGGCCGAGUGAUGUUCGGCGGGU [Same State Arginine A GF 27] | 250
UUUGUAGAGGGAAGGAGCGUGAAAGAGAAAGAAUAUAGUGAUGUUAUAUAGAAGAAAGAAUCACAGGUAGGUCGCCCGGAGGAGG [SSArgB.E] | 563
ACACGUGUGGCAGGAUAUCGGGCUGUGGAUCGGCUGGUUGCUUAUUCUCGACCAGUGAUGUUGGUACGAGAAGGGCUACCCAGAA [Diorce] | 102
AGGAGCGUGCGAUGCAAAUCGCACGCUCCUCGAGGACCGGUACGGCCGCCACUCGCUCGCGCCGAGUGAUGUUCGGCCGGCGAAC [#2 Same State - Tryptophan A Attempt #10 (HarryS)] | 289

Same assay, conditions: Eterna round: R107; input ligand: tryptophan 2.4 mM

Sequence | apparent KD of K4 kissing-loop reporter [nM]
UGUCAUUGGUCGGCCGCCACUUCAUGUAGAGUGAUGUUUUGUAGGACGGAUCGAAAGAUCUGUCGGAGGACCGGGACCGAUGACU [FiskerMod 16 - Jieux - Same State - Tryptophan B] | 1690
ACGUCCGGAUUAAUCGUGGGCAUGGUCGAUACCAGAUCUUUAAUGAUCCCUUGGCAGCGACAUGAGUGAUGUUCAUGUGCGAUGA [KL-XTheo-A8 #analogue] | 179
GGAUGCAUAGUAGAUACCAGCAAGCUCGGAUAGUGAUGUUGUUCGCAGUCAUUUCGGUAGUGCCCUUGGCAGCUAGACGCCCGAU [theeternabot_exclusion_KL_Theo_B_36] | 97.5
GAGGCCAGACUGAGUGAUGUUUAGUAUGAUACCAGUAUCGAAGGAUACCCUUGGCAGCAUGCCACGGCCUCGGCGGGAAACCGCC | 876
GAGUCCUUUGAAGGAUAUAGACGUCCCGAUCACUCAGUUGGCGAGCGAGUGAUGUUCGUUCCUAUACUAGAAGGUCAAAGCCUCC [theeternabot_sameState_KL_FMN_B_32] | 205
AGACUACCACACUGUCAAUAGACAGUGGACUAGGAUAUGCUGAUAAGCAGAAGGAGUGAUGUUCCUCGGUAGUCAAUAAAAUAAU [FmnAX 13 G28+C67] | 273
CUCGAGUGAUGUUCGAUUAUUUAUACAGAUACCAGUGAAUUUUAACACCCUUGGCAGCUGGUAGUAUCGUUGUAAUUUACACAAG [JR_ExcTheophyA_Sub004] | 87.9
GGGAAGGACGGAGGAUAUGCACUGAGGAGGAGAAUAUAGUGAUGUUAUAUAAGAGGAAGGAGCUGAGUAGAAGGCCGAGGAAAGG [whbob_SS_FMNB__2th207] | 129
AGUGAUAUAUGAGGAUAUGGGAUUGUUAAUGAGUUAGUUUUAGUGUUGUUUGGUUAGUGAUGUUAUUUAGAAGGCGUGAGUGAUG [kuktrmullin] | 70.4
UGUAAUUCGGCGGCCGCCACUGACCAUAGCCUUCGAUGGCCAGUGAUGUUGGCCUCUGGCUCUAACAGGACCGGGCCGAAUUGCG [Sotetiqu] | 116
AAAGUUGAUGAGUUGGGUAUGUGUUCCGAAGGAGCGAGAAUUAUCUCAGGUAGGUCGCGGAAGAUGAGUGAUGUUCAUCUAUAAA [KL-XArg-A8 #analogue] | 127
GUAUGUGGAAACACGUACUUAUAUCCUAGGCAGGAUAUGCGGAAACGCAGAAGGGCCACCGGCGAGUUUAUCCAGUGAUGUUGGA [Ex FMN A 8] | 245
AUUAAUUUCAGAGGAUAUCGUUAUUUUUUUAAGUAUAAUCUAUUAUGCAGUGAUGUUGCUAUUAAUCGAGAAGGCUGAUUUAUAA [JR_ExcFMNB_Sub001] | 78.5
AACCUACGAUCACAAUAGUGAUUGUAGGACUAGGAUAUGCUGAAAAGCAGAAGGAGUGAUGUUCCACUCAUGAAUAACAUGAGAA [FmnAX 4 #OpenEnded #K4Late #CoaxialStacking] | 270
UGAUAGGACAGAAGGAGCGGUAGUGAUGUUACCAAAAGGAUAAGGUGUCAAAAGACACCCUACCAGGUAGGUCGCUGUCCUAUCU | 109
GCGCGUCAUGUCAGCGGUGACUAUGUCGAUACCAGCAGGGAAACCUGCCCUUGGCAGCGACGCGCUGGAGUGAUGUUCCGACGGC [#2 Exclusion - Theophylline A Attempt #8 (HarryS)] | 145
AGAGAUAUAUGAGGAUAUGAGUUAGUUAAUGAGUUAGUUUUAGUGUUGUUUGGUUAGUGAUGUUAUUUAGAAGGCGUGAGUGAUG [cxfsmullin] | 60.8
AAAUCUUUCAGAAGGAGCGUGGAUUAUUCUUAUAUAUUUAUUACGAGUGAUGUUCGUAAUUCACAGGUAGGUCGCUGAUCAAUAA [JR_ExcArginiB_Sub006] | 89.8
UGUCAUUGGUCUGAUACCAGCUUGAUCGGAAACGAUCUGCUGGAGUGAUGUUCCAAGUAAAGCCCUUGGCAGCAGACCGAUGACU [TheoBS 8 #SwitchBubble #StaticStem] | 102
GUAGAUAGGCUACAUCUCUAGUCUAAAGACUAGGAUAUCAGGAAACUGAGAAGGAGUCUCAUUGGAGUGAUGUUCCAAGAAUAAU [KL-SSFMN-A16] | 71.7
CGUUUAUAGCAGGAUACCAGUACCCAUAAAGUACGUUAAUAGUAGAGUGAUGUUCUAAAGUACCCUUGGCAGCUUAGAGUGAGUG [ExTheophylB.Q] | 76.4
GCCGCCGCGGCAGGAUAUAGACAUUGAGUGAUGUUCGGUGCUUAUCCAAAGUGCUGUUUCGGCCAACUAGAAGGGCCGCGGCGGC | 119

Sequence | apparent KD of K4 kissing-loop reporter [nM]
GCGCGUCAUGUCAGCGGUGACUCUGUCGAUACCAGCGCCGCAAGGCGCCCUUGGCAGCGACGCGCUGGAGUGAUGUUCCAGCGUG [#2 Exclusion - Theophylline A Attempt #13 (HarryS)] | 145
UGAUAGGACAGAAGGAGCGGUAGUGAUGUUACCAAAAGGUUAAGGUGUCAAAAGACACCCUACCAGGUAGGUCGCUGUCCUAUCU | 136
ACCUAGUAGACAGGAUAUCACGAUGACAGUGAUGUUGUCAUCAUCGAUUUGAGGAAACUCAGAUCGUGAGAAGGGUCUAACGACU [FMN B SS t7a] | 190
AAACUCAGUGAUGUUGAGUGGGAGCGGGAUACCAGAUCGCCCAUCAUCCCUUGGCAGCCCGAGCGUCAGAAUACAUUUCAUUUGC [theeternabot_sameState_KL_Theo_A_6] | 263
AUAGGAUUGCGAGGAUAUCCUUCCCACGUCGAAGUACCGUGCUUGAUGGAGUGAUGUUCGAUCAGAGGAGAAGGUGCGGUUUUGU [Same State FMN B GF24] | 944
UAGCGCAACCUGCUUACGUAUGAGCCGGAAGGAGCGGCAGAAUUGCCAGGUAGGUCGCCGGCCCAGUGAUGUUGGGAUGGUGUGG [Usritiis] | 228
CGCUUGCACGGAAGGAGCGUCCAAGCGAGACACGAGUGAUGUUCGUGAUCGACGUAAACUGGACAGGUAGGUCGCCGUGCUUAAU [Eresti] | 100
CGCUUGGGUGCGGCCGCCACUAGAGCGUGACACGGGUCCCAAAAGGGUGCAGUGAUGUUGCAGCCUAGGACCGGGCACCUCUGGC [Beveesbe] | 167
GCUAUGGUAGGAAGGAGCGCUUGCUCGGUCAUAUGAGUGAUGUUCGAGACCGAGCAUUUAUAGCAGGUAGGUCGCCUACUAUAGC [Arginine B K4 8] | 198
UUUUAUUCGUACUUCUAGUGAUGUUAGAUUCGAGGACCGGUACGGCCGCCACUCGUUAAGGCGAUUUUAUAUUUUUUAUUCUUUA [JR_SSTryptoA_Sub012] | 138
UACUUAUAGUUAUUUCUAAAUUUAUUUAGUCAGGAUAUCGAAUAGUCGAGAAGGGACAUAAUCAAGUGAUGUUUGAUUAUUCAAA [JR_SSFMNA_Sub023] | 69.6
UAUUAAUUGUCAGGAUAUCGAAAUCGAGUGAUGUUCGUAAAUUAAUUAUUAUUAAUAAUAUUUAAACGAGAAGGGACAUUAUUUA [JR_SSFMNB_Sub001] | 442
UAACUCUUGCAGUGAUGUUGCAAGUAAGCUCAGGAUAUCAGGAAACUGAGAAGGGAGCAUCCUGAGCAACUGCAAGAGCUCAGAA [[K1]-[K2]-[F1]-[F2]-[F]'-[K]'-[F]''_Design1] | 87.5
GGCACGGUAACGCAACCGCCGUGCGCUUGGGAGGAUAUGUUUCGUGACAGAAGGCCCAGUGAUGUUGGGUCUGUUCAAAAGGACU [Ceenerus] | 88.7
UGAUAGGACAGAAGGAGCGGGAGUGAUGUUCCCAAAAGGGUAAGGUGUCAAAAGACACCCUUCCAGGUAGGUCGCUGUCCUAUCU | 83.9
GCCGUAGAUUGAAGGAGCGGUAUGGGCGUUGGCUGAGUGAUGUUCAGGGAAAGUGGCUUCUACCAGGUAGGUCGCAAUCUACGGC | 137
UGUAUGUGAUUUGAUACCAGACCAGCUGGUGGUUCACGAGUGAUGUUCGUGUUGGUUUGGGUCCCUUGGCAGCAAAUCGCAUACU [KL-SSTheoB12] | 140
ACGUGCACCAGUGAUGUUGGAAAAUAUGAAGGAGCGGGUGAAAGCCCAGGUAGGUCGCAUAAUAGCACGAGCCACGAAAGUGGCA | 117
CGCAGUGAUGUUGUGAUUAACUACAGGGAAGGAGCGUGCUAGAGCACAGGUAGGUCGCCCAGUGGCCGAGUGAUGUUCGGCGGGU [Same State Arginine A GF 27] | 188
UUUGUAGAGGGAAGGAGCGUGAAAGAGAAAGAAUAUAGUGAUGUUAUAUAGAAGAAAGAAUCACAGGUAGGUCGCCCGGAGGAGG [SSArgB.E] | 295
ACACGUGUGGCAGGAUAUCGGGCUGUGGAUCGGCUGGUUGCUUAUUCUCGACCAGUGAUGUUGGUACGAGAAGGGCUACCCAGAA [Diorce] | 123
AGGAGCGUGCGAUGCAAAUCGCACGCUCCUCGAGGACCGGUACGGCCGCCACUCGCUCGCGCCGAGUGAUGUUCGGCCGGCGAAC [#2 Same State - Tryptophan A Attempt #10 (HarryS)] | 452
